US20170009224A1

Target: lambda repressor cI comprising a TEV protease cleavage site (ENLYFQ(G/S)) within the interdomain linker (UniProt P03034)
Assay: cell-based or functional assay

Chain of TEV protease (wild type) (P04517 2038-2279): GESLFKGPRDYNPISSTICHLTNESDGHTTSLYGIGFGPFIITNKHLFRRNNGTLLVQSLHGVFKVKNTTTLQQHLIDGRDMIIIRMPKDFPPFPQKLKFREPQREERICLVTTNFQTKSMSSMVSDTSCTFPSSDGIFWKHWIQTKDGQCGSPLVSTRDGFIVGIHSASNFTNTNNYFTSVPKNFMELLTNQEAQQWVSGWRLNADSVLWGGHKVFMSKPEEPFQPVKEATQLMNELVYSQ

## TEV protease (wild type) (from UniProt P04517 2038-2279) (enzyme)
  gene expression from the pR promoter driving pIII and luciferase: > 100 fold
